FireProtDB

Details: whole UniProt chain shown
[1] = Aquifex aeolicus (strain VF5), pH 7, 20 °C, GdnHCl, Fluorescence, Sodium phosphate sodium chloride 25 mM 100 mM
[2] = Bos taurus, pH 5, Thermal, CD, Tris-acetate 0.01 M, reversible: yes
[3] = Bos taurus, pH 8.4, Thermal, CD, Tris-acetate 0.01 M, reversible: no
[4] = Bacillus licheniformis (strain ATCC 14580 / DSM 13 / JCM 2505 / CCUG 7422 / NBRC 12200 / NCIMB 9375 / NCTC 10341 / NRRL NRS-1264 / Gibson 46…, pH 7, Thermal, CD, Hepes 10 mM, reversible: Yes
[5] = Aliivibrio salmonicida (strain LFI1238), pH 8, Thermal, DSC, HEPES, MgCl2 NaCl 5 mM 0.175, reversible: no
[6] = Aliivibrio salmonicida (strain LFI1238), pH 8, Thermal, DSC, HEPES, MgCl2 NaCl 5 mM 1, reversible: no
[7] = Aliivibrio salmonicida (strain LFI1238), pH 8, Thermal, DSC, Tris-HCl 50mM, NaCl 0.175 M
[8] = Aliivibrio salmonicida (strain LFI1238), pH 8, Thermal, DSC, Tris-HCl 50mM, NaCl 1 M
[9] = Bacillus amyloliquefaciens, pH 7, 25 °C, GdnHCl, CD, phosphate 20 mM
[10] = Bacillus amyloliquefaciens, pH 8, 25 °C, Urea, Fluorescence, Tris-HCl 50 mM, reversible: yes
[11] = Bacillus amyloliquefaciens, pH 8, Thermal, CD, Sodium phosphate 2 mM, reversible: yes
[12] = Bacillus amyloliquefaciens, pH 8, Thermal, DSC, Sodium phosphate 10 mM, reversible: yes
[13] = Bacillus amyloliquefaciens, pH 9.5, Thermal, DSC, Sodium phosphate 10 mM, reversible: yes
[14] = Bacillus subtilis (strain 168), pH 6, 27 °C, Thermal, CD, sodium phosphate 50 mM, reversible: yes

B1: wild type, O66926 (protein)
chain: MKKFLIPFLTFLGFTFSSELIPCKVVRVVDGDTFRCVPEGKSRFIKVRLMGIDTLETNNMKKGMGQAKWFYGGIRTVKEFGKKAKEFSKRLIDKKVVYLELPVRKMDNNGRYLAYVWLDEYRNKMLNLLLVKEGLAFVFIIPPQVKYLKELGEAQEEAYKDRRGFWKYFKGE
denaturant m value [1]: 1.02 kcal/mol/M | denaturant midpoint (higher = more stable) [1]: 0.42 M | unfolding free energy [1]: 2.8 kcal/mol

B2: Cytidine deaminase wild type, P19079 (protein)
chain: MNRQELITEALKARDMAYAPYSKFQVGAALLTKDGKVYRGCNIENAAYSMCNCAERTALFKAVSEGDTEFQMLAVAADTPGPVSPCGACRQVISELCTKDVIVVLTNLQGQIKEMTVEELLPGAFSSEDLHDERKL
unfolding free energy (Bacillus subtilis (strain 168), pH 7, 25 °C, GdnHCl, CD, potassium phosphate 20 mM, reversible: no): 2.5 kcal/mol

B3: Seminal ribonuclease wild type, P00669 (protein)
chain: MALKSLVVLPLLVLVLLLVRVQPSLGKESAAAKFERQHMDSGNSPSSSSNYCNLMMCCRKMTQGKCKPVNTFVHESLADVKAVCSQKKVTCKNGQTNCYQSKSTMRITDCRETGSSKYPNCAYKTTQVEKHIIVACGGKPSVPVHFDASV
Tm [2]: 61.6 °C | unfolding enthalpy (van 't Hoff) [2]: 151 kcal/mol | Tm [3]: 65.2 °C | unfolding enthalpy (van 't Hoff) [3]: 199 kcal/mol

B4: Protein GrpE wild type, Q65H53 (protein)
chain: MAEEKQNEELNEQEELNETEAETAEAEQTAAEADAPAEETQTEMLEKQLKELQERLEEKENKLLRVQADFENYKRRARLDLEAAEKYRSQRIISDLLPALDNFERALQIDPDNEQTKSLLQGMEMVHRQILEALKNEGVEQIPSVGEQFDPNMHQAVMQVEDEAYESNAVVEELQKGYKLKDRVIRPSMVKVNQ
Tm [4]: 52 °C | unfolding enthalpy (van 't Hoff) [4]: 99.9 kcal/mol

B5: wild type, Q2XSL7 (protein)
chain: MKLIRLVISLIAVSFTVNVMAAPPSSFSKAKKEAVKIYLDYPTSFYCGCDITWKNKKKGIPELESCGYQVRKQEKRASRIEWEHVVPAWQFGHQRQCWQKGGRKNCTRNDKQFKSMEADLHNLVPAIGEVNGDRSNFRFSQWNGSKGAFYGQCAFKVDFKGRVAEPPAQSRGAIARTYLYMNNEYKFNLSKAQRQLMEAWNKQYPVSTWECTRDERIAKIQGNHNQFVYKACTK
Tm [5]: 41.8 °C | unfolding enthalpy (calorimetric) [5]: 64 kcal/mol | Tm [6]: 51.9 °C | unfolding enthalpy (calorimetric) [6]: 88.7 kcal/mol | Tm [7]: 41.8 °C | unfolding enthalpy (calorimetric) [7]: 64 kcal/mol | Tm [8]: 51.9 °C | unfolding enthalpy (calorimetric) [8]: 88.6 kcal/mol

B6: Barstar wild type, P11540 (protein)
chain: MKKAVINGEQIRSISDLHQTLKKELALPEYYGENLDALWDCLTGWVEYPLVLEWRQFEQSKQLTENGAESVLQVFREAKAEGCDITIILS
denaturant midpoint (higher = more stable) [9]: 1.92 M | unfolding free energy [9]: 4.6 kcal/mol | unfolding free energy (Bacillus amyloliquefaciens, pH 8, 10 °C, Urea, CD, Tris Cl 50 mM, KCl 100 mM): 3 kcal/mol | denaturant m value [10]: 1.25 kcal/mol/M | denaturant midpoint (higher = more stable) [10]: 3.87 M | unfolding free energy [10]: 4.84 kcal/mol | Tm [11]: 70 °C | heat capacity change of unfolding [11]: 1.49 kcal/mol/K | unfolding enthalpy (van 't Hoff) [11]: 69.7 kcal/mol | Tm [12]: 69.7 °C | heat capacity change of unfolding [12]: 1.41 kcal/mol/K | unfolding enthalpy (calorimetric) [12]: 42.6 kcal/mol | unfolding enthalpy (van 't Hoff) [12]: 60 kcal/mol | Tm [13]: 68.7 °C | heat capacity change of unfolding [13]: 1.36 kcal/mol/K | unfolding enthalpy (calorimetric) [13]: 41.2 kcal/mol | unfolding enthalpy (van 't Hoff) [13]: 56.1 kcal/mol

B7: FMN-dependent NADPH-azoreductase wild type, O07529 (protein)
chain: MNMLVINGTPRKHGRTRIAASYIAALYHTDLIDLSEFVLPVFNGEAEQSELLKVQELKQRVTKADAIVLLSPEYHSGMSGALKNALDFLSSEQFKYKPVALLAVAGGGKGGINALNNMRTVMRGVYANVIPKQLVLDPVHIDVENATVAENIKESIKELVEELSMFAKAGNPGV
Tm (Bacillus subtilis (strain 168), pH 7.5, Thermal, CD, Tris-HCl 100 mM, reversible: No): 86.5 °C

B8: Chemotaxis protein CheY wild type, P24072 (protein)
chain: MAHRILIVDDAAFMRMMIKDILVKNGFEVVAEAENGAQAVEKYKEHSPDLVTMDITMPEMDGITALKEIKQIDAQARIIMCSAMGQQSMVIDAIQAGAKDFIVKPFQADRVLEAINKTLN
heat capacity change of unfolding [14]: 2.34 kcal/mol/K | unfolding free energy [14]: 3.14 kcal/mol | Tm (Bacillus subtilis (strain 168), pH 6, Thermal, CD, sodium phosphate 50 mM, reversible: yes): 54.9 °C

B9: Serine protease 1 wild type, P00760 (protein)
chain: MKTFIFLALLGAAVAFPVDDDDKIVGGYTCGANTVPYQVSLNSGYHFCGGSLINSQWVVSAAHCYKSGIQVRLGEDNINVVEGNEQFISASKSIVHPSYNSNTLNNDIMLIKLKSAASLNSRVASISLPTSCASAGTQCLISGWGNTKSSGTSYPDVLKCLKAPILSDSSCKSAYPGQITSNMFCAGYLEGGKDSCQGDSGGPVVCSGKLQGIVSWGSGCAQKNKPGVYTKVCNYVSWIKQTIASN
unfolding free energy (Bos taurus, pH 5.8, 25 °C, GdnHCl, Fluorescence, MES 0.1 M): 10.9 kcal/mol
